Measurements reported in paper PMC5992710.

How the values were obtained:
[1] = target: recombinant 0076 protein (ferritin encoded by mycma_0076) from Mycobacterium abscessus subsp. massiliense GO06 (Mycobacterium abscessus subsp. massiliense GO06); test: dynamic light scattering; r0076 1 mg/ml in 50 mM NaH2PO4 pH 8.0, 50 mM NaCl; RH converted to mass assuming a spherical particle; 20 to 90°C
[2] = target: recombinant 0076 protein (ferritin encoded by mycma_0076) from Mycobacterium abscessus subsp. massiliense GO06 (Mycobacterium abscessus subsp. massiliense GO06); test: SEC; Superdex 200 10/300 GL, 50 mM NaH2PO4 pH 8.0, 300 mM NaCl, 1 ml/min, calibrated with molecular weight standards; apparent mass

## recombinant 0076 protein (ferritin encoded by mycma_0076) from Mycobacterium abscessus subsp. massiliense GO06 (natural protein)
[1]
  stoichiometry N: 24 subunits
[2]
  stoichiometry N: 24 subunits
